Data taken from PMC11995267.

T1: GST-tagged first WD40 domain of Elp1, Q06706
T1 chain: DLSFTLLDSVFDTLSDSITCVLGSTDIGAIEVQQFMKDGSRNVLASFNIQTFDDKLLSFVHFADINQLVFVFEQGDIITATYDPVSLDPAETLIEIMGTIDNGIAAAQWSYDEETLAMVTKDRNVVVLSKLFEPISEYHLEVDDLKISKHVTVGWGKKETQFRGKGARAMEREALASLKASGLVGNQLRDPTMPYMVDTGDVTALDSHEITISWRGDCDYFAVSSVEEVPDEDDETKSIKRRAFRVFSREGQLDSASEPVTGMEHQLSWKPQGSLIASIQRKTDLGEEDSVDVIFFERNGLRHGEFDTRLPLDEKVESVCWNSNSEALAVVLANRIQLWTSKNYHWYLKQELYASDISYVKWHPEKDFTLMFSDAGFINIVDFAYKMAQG


Target: T1, GST-tagged first WD40 domain of Elp1, …
Assay: GST pull-down, quantified from Coomassie SDS-PAGE
Details: chain shown with the change;; parent: est. 1.0; read off a plot

Row | ratio to parent | Binder
1 | 0.11 | recombinant Kti12 (wild type), His-tagged, P34253 K225A; K228A; K235A; R281A; K283A; R284A; K291A (protein) MPLVLFTGYPCSGKTTLAKHLVQLLQSKIDATPSLSKYSITYHSDESLGIKHSDYITSQDERKLRSEIISAVKRDLSKNKIVIVDSLNYIKGFRYQLHCEVKNLSTTFCVIQTLCPPETIFEWNKTSNPNPWEPELLNQLIQRYEEPNSSNRWDSPLFAILTPQDNITDYIDDICKVVFQTSKSAKNSGHNDPLSKGLQKPNSATVLKPASQSNFIQVLDIETSAIIATIMNHIASLTSIGGVSNGTRVIVSEGITDINDDGCFFVDLPIGNVVTLAQLQALAAQFINFNALRDIDQDRIGPLFADYLNKNLN
2 | 0.67 | recombinant Kti12 (wild type), His-tagged, P34253 K225A; K228A; K235A (protein) MPLVLFTGYPCSGKTTLAKHLVQLLQSKIDATPSLSKYSITYHSDESLGIKHSDYITSQDERKLRSEIISAVKRDLSKNKIVIVDSLNYIKGFRYQLHCEVKNLSTTFCVIQTLCPPETIFEWNKTSNPNPWEPELLNQLIQRYEEPNSSNRWDSPLFAILTPQDNITDYIDDICKVVFQTSKSAKNSGHNDPLSKGLQKPNSATVLKPASQSNFIQVLDIETSAIIATIMNHIASLTSIGGVSNGTRVIVSEGITDINDDGCFFVDLPIGNVVTLAQLQRLKRQFINFNKLRDIDQDRIGPLFADYLNKNLN
